Patent US20190367619A1 (ARGENX, published 2019)

T1: TEV-cleaved wild-type recombinant human galectin-10 (soluble, in Fab complexes, or as recombinant galectin-10 … (human, UniProt Q05315 1-142))
T1 sequence: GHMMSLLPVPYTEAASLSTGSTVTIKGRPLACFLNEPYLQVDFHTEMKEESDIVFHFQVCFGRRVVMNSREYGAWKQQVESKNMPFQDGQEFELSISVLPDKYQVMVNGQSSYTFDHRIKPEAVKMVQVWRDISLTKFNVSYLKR

T2: human galectin-10-His (recombinant human galectin-10 with TEV-cleavable N-terminal His-tag) (human)
T2 construct: SEC-MALLS: dimer in solution; also called Gal10-His; humanGal10-His
T2 chain: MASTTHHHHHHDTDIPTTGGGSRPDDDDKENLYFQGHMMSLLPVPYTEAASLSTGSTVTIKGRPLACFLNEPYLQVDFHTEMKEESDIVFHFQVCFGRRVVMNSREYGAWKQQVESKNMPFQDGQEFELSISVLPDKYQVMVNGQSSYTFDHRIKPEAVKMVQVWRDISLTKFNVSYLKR

T3: recombinant human galectin-10, TEV-cleaved (human, UniProt Q05315 1-142)
T3 sequence: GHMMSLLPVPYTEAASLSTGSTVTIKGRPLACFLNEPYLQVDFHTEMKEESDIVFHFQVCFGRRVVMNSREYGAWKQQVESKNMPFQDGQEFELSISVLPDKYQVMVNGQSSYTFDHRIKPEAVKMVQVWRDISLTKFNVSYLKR

T4: human galectin-10-His (human)
T4 construct: The last M of the tag may be Met1 of galectin-10; also called humanGal10-His; hGal10
T4 chain: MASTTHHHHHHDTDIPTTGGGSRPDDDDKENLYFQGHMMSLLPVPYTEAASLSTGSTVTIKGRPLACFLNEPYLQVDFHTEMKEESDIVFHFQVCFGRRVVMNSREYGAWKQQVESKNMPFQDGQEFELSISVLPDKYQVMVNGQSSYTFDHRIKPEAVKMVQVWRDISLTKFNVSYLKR

T5: cynomolgus galectin-10-His, YRT isoform (cynomolgus)
T5 construct: also called cynoGal10-YRT; not shown: His tag
T5 chain: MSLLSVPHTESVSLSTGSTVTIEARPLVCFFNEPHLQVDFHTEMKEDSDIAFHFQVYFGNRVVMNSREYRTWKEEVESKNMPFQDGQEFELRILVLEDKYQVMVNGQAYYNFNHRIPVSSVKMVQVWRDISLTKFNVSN

T6: cynomolgus galectin-10-His, WGS isoform (cynomolgus)
T6 construct: also called cynoGal10-WGS; not shown: His tag
T6 chain: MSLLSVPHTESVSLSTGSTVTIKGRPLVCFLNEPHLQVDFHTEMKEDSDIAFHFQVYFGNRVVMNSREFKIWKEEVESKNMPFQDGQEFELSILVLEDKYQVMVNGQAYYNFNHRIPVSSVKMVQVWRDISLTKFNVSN


What was measured:
[1] = target: T1, TEV-cleaved wild-type recombinant human …; experiment: cell-based or functional assay
[2] = target: T2, human galectin-10-His (recombinant …); experiment: BLI tandem on galectin-10-His; competitor: saturating 6E10 mIgG1 (10 ug/mL)
Method: (§1) In order to identify the galectin-10 binding sites of the different clones, an epitope mapping method (TANDEM), using the BLI technology, was established. Briefly, the galectin-10-His was captured on anti-HIS 1K sensor tips, before incubation with an excess of one antibody (called the “saturating” antibody) then directly transferred to a solution containing the “competitor” antibody at a suboptimal concentration. If the “saturating” and the competitor antibody bind to the same binding sites, no binding of “competitor” will be detected (expressed in nm shift).

[3] = target: T2, human galectin-10-His (recombinant …); experiment: BLI tandem on galectin-10-His; competitor: saturating 4E08 mIgG1 (10 ug/mL)
Method: as §1

[4] = target: T2, human galectin-10-His (recombinant …); experiment: BLI tandem on galectin-10-His; competitor: saturating 6B06 mIgG1 (10 ug/mL)
Method: as §1

[5] = target: T2, human galectin-10-His (recombinant …); experiment: BLI tandem on galectin-10-His; competitor: saturating 1C09 mIgG1 (10 ug/mL)
Method: as §1

[6] = target: T2, human galectin-10-His (recombinant …); experiment: BLI tandem on galectin-10-His; competitor: saturating 6A08 mIgG1 (10 ug/mL)
Method: as §1

[7] = target: T2, human galectin-10-His (recombinant …); experiment: ELISA, mouse IgG1 on coated galectin-10-His (0.2 ug/mL)
Method: In a similar setup to that used during the characterization of the scFv-human Fc molecules, the relative binding affinities of the 10 mouse IgG1 antibodies were analyzed by ELISA. A Maxisorp plate was coated overnight with 0.2 μg/mL of galectin-10-His. Then a serial dilution of each clone (from 100 nM, dilution 1/4, 12 points of dilutions) was incubated on coated galectin-10. After several washing steps, detection of the bound mouse IgG1 was carried out with an anti-mouse Fc-HRP antibody. Absorbance was measured at 450 nm (reference at 620 nm) with Tecan instrument. A mouse IgG1 isotype control was used as negative control. A polyclonal anti-galectin-10 antibody was used as positive control for the coating of galectin-10. The raw data (OD values) were plotted on GraphPad Prism 7.01. The EC50 values for each antibody, calculated with a non-linear regression (log(agonist) vs. response Variable slope (four parameters)), are reported in Table 7 below.

[8] = target: T2, human galectin-10-His (recombinant …); experiment: BLI tandem on galectin-10-His; competitor: saturating 1D11 mIgG1 (10 ug/mL)
Method: as §1

[9] = target: T2, human galectin-10-His (recombinant …); experiment: BLI tandem on galectin-10-His; isotype control as saturating antibody (10 ug/mL)
Method: as §1

[10] = target: T2, human galectin-10-His (recombinant …); experiment: SPR Biacore T3000, mouse IgG1 captured by anti-mouse Fc, galectin-10-His as analyte
Method: The binding capacity of the mouse IgG1 antibodies to galectin-10 was analyzed on Biacore T3000. For this purpose, a capture approach was set up. A CM5 Chip was coated with polyclonal anti-mouse Fc at 8000 RU, then a fixed concentration of the mouse IgG1 antibody panel (1.5 μg/mL), diluted in HBS-EP pH7.4, was captured to reach a binding signal around 150 RU. Finally, a serial dilution of galectin-10-His (serial dilution, 1 over 2 from 5 μg/mL) diluted in HBS-EP pH7.4 was injected. Raw data were analyzed via BIA evaluation software with a blank subtraction (4-3). The kd/KD and Rmax of each mAb to galectin-10-His was determined using the Fit Kinetics simultaneous ka/kd/Binding with mass transfer/Local Rmax on BIA evaluation software.

[11] = target: T2, human galectin-10-His (recombinant …); experiment: BLI tandem on galectin-10-His; competitor: saturating 2C07 mIgG1 (10 ug/mL)
Method: as §1

[12] = target: T2, human galectin-10-His (recombinant …); experiment: BLI tandem on galectin-10-His; competitor: saturating 6F06 mIgG1 (10 ug/mL)
Method: as §1

[13] = target: T2, human galectin-10-His (recombinant …); experiment: BLI tandem on galectin-10-His; competitor: saturating 2F09 mIgG1 (10 ug/mL)
Method: as §1

[14] = target: T2, human galectin-10-His (recombinant …); experiment: BLI tandem on galectin-10-His; competitor: saturating 6A05 mIgG1 (10 ug/mL)
Method: as §1

[15] = target: T3, recombinant human galectin-10, …; experiment: cell-based or functional assay
[16] = target: T3, recombinant human galectin-10, …; experiment: cell-based or functional assay; remark: listed apart in the source
human galectin-10-His [17] = target: T4, human galectin-10-His; experiment: SPR Biacore T3000, mouse IgG1 captured
Method: (§2) The binding capacity of the mouse IgG1 antibody panel to galectin-10 was analysed on Biacore T3000. For this purpose, a capture approach was used, where a fixed concentration (1.5 μg/mL) of the mouse IgG1 clone was captured by polyclonal anti-mouse Fc antibodies immobilized on CM5 Chip to reach a binding signal around 150 RU. Then a serial dilution of human and cynomolgus WGS isoform of galectin-10-His (serial dilution, 1 over 2 from 5 μg/mL) diluted in HBS-EP pH7.4 was injected. Raw data were analysed via BIA evaluation software with a blank subtraction. The kd/KD and Rmax of each mAbs to galectin-10-His was determined using the Fit Kinetics simultaneous ka/kd/Binding with mass transfer/Local Rmax on BIA evaluation software.

[18] = target: T5, cynomolgus galectin-10-His, YRT isoform; experiment: ELISA, coated antigen 0.5 ug/mL
Method: (§3) In a similar setup to that used during the characterization of the scFv-human Fc molecules, the relative binding properties of the 7 mouse IgG1 antibodies were analyzed by ELISA. A Maxisorp plate was coated overnight with 0.5 μg/mL of human or cynomolgus WGS or YRT isoform of galectin-10-His. Then a serial dilution of each clone (from 100 nM, dilution 1/4, 12 points of dilutions) was incubated on coated galectin-10. After several washing steps, detection of the bound mouse IgG1 was carried out with an anti-mouse Fc-HRP antibody (DAMPO, Jackson ImmunoResearch, Catalog 715-035-150). Absorbance was measured at 450 nm (reference at 620 nm) with Tecan instrument. The raw data (OD values) were plotted on GraphPad Prism 7.01. The EC50 values for each antibody, calculated with a non-linear regression (log(agonist) vs. response Variable slope (four parameters)), are shown in the table below. Antibody 1D11 from the previous panel was included for comparison.

human galectin-10-His [19] = target: T4, human galectin-10-His; experiment: ELISA, coated antigen 0.5 ug/mL
Method: as §3

[20] = target: T6, cynomolgus galectin-10-His, WGS isoform; experiment: SPR Biacore T3000, mouse IgG1 captured
Method: as §2

[21] = target: T6, cynomolgus galectin-10-His, WGS isoform; experiment: ELISA, coated antigen 0.5 ug/mL
Method: as §3

Row | Binder | 50% dissolution (min) of CLCs, antibody 50 uM [15] [min] | 90% dissolution (min) of CLCs, antibody 50 uM [15] [min] | 50% crystal dissolution (min), 50 uM [16] [min] | 90% crystal dissolution (min), 50 uM [16] [min] | Kd (human galectin-10-His [17]) [nM] | koff (human galectin-10-His [17]) [s⁻¹] | kon (human galectin-10-His [17]) [M⁻¹ s⁻¹] | EC50 [18] [nM] | OD values [18] [OD] | EC50 (human galectin-10-His [19]) [nM] | OD values (human galectin-10-His [19]) [OD] | other results
1 | 6A05 mouse IgG1 (antibody, V domains shown, also called 6A05 mIgG1) VH: EVQLVESGGGLVQPGGSLRLSCAASGFTFSSYAMSWVRQAPGKGLEWVSAINSGGGWTSYVDSVKGRFTISRDNAKNTLYLQMDSLKPEDTAVYYCTKYSGPELNTQYGMDYWGKGTLVTVSS VL: NFMLTQPSAVSVSLGQTARITCQGGNFGSYYASWYQQKPGQAPVLVIYRDSGRPSGIPERFSGSSSGDTATLTISGAQAEDEADYYCQSGSSSDNTVFGGGTHLTVL |  |  |  |  |  |  |  |  |  |  |  | 100% Solubilization of CLC (Conc uM) [1]: 10.1 µM; binding signal (nm) [2]: -0.03 nm; binding signal (nm) [3]: -0.03 nm; binding signal (nm) [4]: 0 nm; binding signal (nm) [5]: 0 nm; binding signal (nm) [6]: 0 nm; Bmax [7]: 1.74 OD; EC50 [7]: 0.07 nM; binding signal (nm) [8]: 0.04 nm; binding signal (nm) [9]: 1.02 nm; Kd [10]: 0.6 nM; koff [10]: 0.00483 s⁻¹; binding signal (nm) [11]: 0.01 nm; binding signal (nm) [12]: 0.02 nm; binding signal (nm) [13]: 0.01 nm; binding signal (nm) [14]: 0.05 nm
2 | 10A06 mouse IgG1 (antibody, V domains shown, VH and VL cloned in frame with mouse IgG1 constant domains; also called 10A06 mIgG1) VH: QVQLVESGGGLVQPGGSLRLSCAASGFTFGNYDMSWVRQAPGKGPEWVSDINSGGGSTYYADSVKGRFTISRDNAKNSLLLQMNSLKPEDTAVYYCATGYTGYYYWGQGTQVTVSS VL: QTVVTQEPSLSVSPGGTVTLTCGLSSGSVTSSNYPAWYQQTPGQAPRALIYSINSRHSGVPDRFSGSISGNKAALTITGAQAEDEADYYCTLYMGTGSNNVVFGGGTHLTVL | 44.5 | 86.6 | > 120 | > 120 | 0.9 | 0.0101 | 1.17e+07 | 0.06 | 3.38 | 0.63 | 0.3 | 
3 | 10D02 mouse IgG1 (antibody, V domains shown, VH and VL cloned in frame with mouse IgG1 constant domains; also called 10D02 mIgG1) VH: EVQLVESGGGLVQPGGSLRVSCAASGFTFSSYYMSWVRQAPGKGLEWVSGIVTGGGRTHYTDSVKGRFTITRDNAKNTLYLQMNSLRPEDTALYYCARVNGVVTNYDYWGQGTQVTVSS VL: QAVLTQPPSVSGSPGKTVTISCAGTSSDVGYGNYVSWYQQLPGMAPKLLIYDVNKRASGITDRFSGSKSGNTASLTISGLQSEDEADYFCASYRSPNNVVFGQGTHLTVL | 26.5 | 58.6 |  |  | 1.6 | 0.000865 | 547000 |  | 2.63 | 3.55 | 2.7 | Kd [20]: 1.9 nM; koff [20]: 0.000912 s⁻¹; kon [20]: 477000 M⁻¹ s⁻¹; EC50 [21]: 0.14 nM; OD values [21]: 3.51 OD
4 | 11F12 mouse IgG1 (antibody, V domains shown, VH and VL cloned in frame with mouse IgG1 constant domains; also called 11F12 mIgG1) VH: QVQLQESGGGLVQPGGSLRLSCAASGFTFSTNYMNWVRQAPGKGLEWVSGITSGGGRTYYADSVKGRFTISRDNAKNTLYLQMNSLKPEDTALYYCARTDHAWLDAWGQGTLVTVSS VL: HSAVTQPPSVSGTLGKTVTISCAGTSSDVGYGNYVSWYQHLPGTAPKLLIYAVSTRASGVPDRFSGSKSGNTASLTISGLQSEDEGDYYCASYSVRNNVVFGGGTRLTVL | 21.3 | 42.6 | 65.4 | > 120 | 0.7 | 0.00224 | 3.04e+06 | 0.21 | 3.35 | 4.83 | 2.7 | 
